B1: Zinc finger homeobox protein 4, residues 2183 to 2238; numbered along this chain, Q86UP3 (parent)
chain: SSRTRFTDYQLRVLQDFFDTNAYPKDDEIEQLSTVLNLPTRVIVVWFQNARQKARK

Variants of: B1
Test: abundance fitness (aPCA) (normalised: wild type 0, dead -1); higher = more abundant; growth selection in yeast, the domain comes from the species named
Settings: Homo sapiens

Abundance fitness, by site and new letter:
T20: R 0.072, W -0.158, P -0.57, S -0.047, G -0.041, L -0.205, F -0.503, C 0.002, Q -0.196, I -0.308, A 0.108, E -0.22, K 0.133, M -0.101, V -0.199, H -0.179, N -0.058, D -0.205
N21: H -0.219, M -0.414, A -0.176, S -0.2, Y -0.565, P -0.718, I -0.187, K -0.201, C 0.346, T -0.027, W -0.556, D -0.128, L -0.488, E -0.197, F -0.451, V -0.279, R -0.181, G -0.387, Q -0.497
V35: G 0.043, C 0.02, H -0.006, M 0.058, S 0.03, L -0.004, F -0.206, D -0.222, K 0.157, P -0.297, N -0.427, Y -0.506, Q 0.004, T 0.108, R 0.06, E -0.153, W -0.202, I -0.207
N37: K 0.042, C -0.358, D -0.061, A -0.02, G -0.126, F -0.308, H -0.282, L -0.156, I -0.172, M -0.202
P24: Y -0.746, D -0.832, F -0.792, C -0.567, M -0.596, R -0.657, G -0.813, L -0.419, W -0.593, E -0.823, K -0.817, Q -0.703, V -0.501, T -0.698, N -0.945, H -0.703, A -0.272, I -0.292
S33: T -0.005, E -0.209, I -1.04, Y -0.749, R -0.486, L -0.946, F -0.897, P -0.675, K -0.82, H -0.003, N -0.257, V -0.595, D -0.884, G -0.23, Q -0.134, C -0.357, M -0.35
D19: Y -0.171, S -0.131, P -0.43, M -0.061, C -0.236, I -0.234, H -0.173, G -0.032, L -0.028, N -0.087, T 0.164, W -0.292, E -0.235, F -0.146, Q -0.071, A 0.108, K -0.074, R -0.147
T34: N -0.183, G -0.134, H 0.049, E -0.165, W -0.244, Y -0.061, S -0.066, D -0.162, A -0.049, C -0.106, Q -0.128, F 0.062, I -0.256, M -0.145, P -0.347, R -0.069, K 0.045, L -0.004
E28: M -0.507, A -0.036, F -0.448, T -0.069, G -0.207, R -0.25, Q 0.061, Y -0.341, D 0.031, S -0.18, W -0.596, I -0.741, H -0.188, N -0.287, C -0.18, K -0.011, V -0.34
L32: N -0.683, G -0.973, A -0.659, F -0.207, W -0.399, M -0.019, R -0.861, Y -0.118, C -0.548, K -0.735, P -0.797, E -0.723, D -0.531, T -1.05, V -0.235, H -1.12, I -0.156, S -0.924, Q -0.751
L36: A -0.098, N -0.801, Y -0.8, R -0.811, W -0.842, G -0.318, V 0.03, D -0.933, T 0.045, K -0.794, M -0.157, H -0.701, C 0.008, Q -0.877, E -1.19, F -0.407
E30: T -0.046, M 0.201, K -0.154, H 0.008, W -0.366, C -0.18, R 0.031, V -0.119, L -0.057, I -0.221, N -0.166, G 0.059, Q 0.175, F -0.132, P -0.463, Y -0.366, D 0.08
D26: A 0.003, M -0.056, S -0.049, V -0.048, Y -0.234, R -0.05, T -0.071, F -0.087, L -0.257, Q -0.031, H -0.021, E -0.163, G 0.005, K 0.067, I -0.427, W -0.047, N -0.114, C -0.255, P -0.193
I29: T -0.256, V -0.174, Q -0.447, A -0.266, K -0.576, E -0.614, Y 0.004, D -0.876, C -0.015, P -1.23, W -0.352, L -0.023, F -0.152, N -0.809, R -0.692, H -0.633, G -0.88, S -0.702, M -0.03
Y23: C -0.228, F -0.084, R 0.047, N -0.369, P -0.345, D 0.313, I -0.219, E 0.361, W -0.061, Q -0.173, M 0.031, T -0.093, L 0.008, S 0.032, A -0.097, V -0.039, G -0.169
Q31: A -0.188, V -0.206, S -0.042, F -0.028, C -0.221, Y -0.085, H -0.263, W -0.184, M -0.212, I -0.316, P -0.343, G -0.098, N -0.444, K 0.037, R -0.023, T -0.252, L -0.278
F18: Y 0.101, Q -0.329, P -0.891, K -0.194, R -0.222, W -0.027, I -0.16, S -0.225, T -0.449, N -0.459, H -0.139
A22: I -0.065, M 0.153, L -0.219, G -0.186, N -0.077, C 0.033, Q 0.005, P 0.133, V -0.086, K -0.116, F -0.228, R 0.005, E -0.016, Y -0.309, W -0.169, S 0.074, D 0.002
K25: V -0.068, N -0.156, S -0.025, W -0.387, L -0.233, E -0.455, Y -0.76, G -0.072, F -0.467, M -0.323, D -0.177, A -0.203, R -0.047, P -0.244, C -0.111
D27: A -0.378, K -0.029, G 0.162, M -0.012, R -0.038, Y -0.171, Q 0.08, S -0.009, V -0.375, T -0.256, N 0.001, H 0.048, F 0.019, L -0.004

— the Human Domainome abundance scans (Beltran et al. 2025)
